Results reported in patent publication US20240108707A1, “CHAGAS DISEASE VACCINE ANTIGENS WITH IMPROVED STABILITY AND DECREASED AGGREGATION” (Baylor College of Medicine, priority 2019, published 2024).
Read-outs that look alike come from different tables or passages of the source.

B1: Tc24-C4: Recombinant T. cruzi Tc24 with 4 cysteine residues mutated to serine residues (protein)
chain: MGASGSKGSTSDKGLASDKDGKNAKDRKEAWERIRQAIPREKTAEAKQRRIELFKKFDKNETGKLSYDEVHSGSLEVLKLDEFTPRVRDITKRAFDKARALGSKLENKGSEDFVEFLEFRLMLSYIYDFFELTVMFDEIDASGNMLVDEEELKRAVPKLEAWGAKVEDPAALFKELDKNGTGSVTFDEFAAWASAVKLDADGDPDNVPESA
modifications: synthetic recombinant protein based on TSA1 from T. cruzi
notes: Recombinant T. cruzi Tc24 with 4 cysteine residues mutated to serine residues
B2: TSA-1-C4: Recombinant T. cruzi TSA-1 fragment, four cysteines mutated to serine (C248S, C267S, C360S, C447S), plus 43 C-terminal amino acids (protein)
chain: MERNSGDLQLPQEIAMLVPNKTQVVPKSGGEGKVKDIFASPALVRAGGVMIAFVEGRTKNKLFPEVIDLSSSDIVAGYIKAPETWQSLVAEVTKEYWQAHTVLESANNSNHRVGVARLPTGITRGNKVFLLVGSYEERREIDDYIWKAEAWNIKVIEGEATQSTEVQPTQPINWSEPKPLFQTDSPNNKGDLKEFLGGGGSGIVMGNGTLVFPLTAKDESNKVFSLITYSTDDGQKWEIPGGVSSVASRSPRVTEWEEGTLLMVTYSEDGRKVFESRDMGKTWTEAFGTLPGVWLKSGPELPEVSLRVDALITATIEGRKVMLYTQKVRHFLEVDEPNALHLWVTDNNRTFHLGPFSVDSAENKTFANTLLYSDDALHLLQAKGDHESTAVSLARLTEELNTINSVLSTWVQLDASFSESSIPTAGLVGFLSNTTSSGDTWIDGYRSMNATVTKAAKVENGFKFTGPGSRATWPVNSRWDIKQYGFVDYNFTIVAMATIHQVPSESTPLLGASLRGNKRTKLIGLSYGAGGKWETVYDGTKTVQGGTWEPGREYQVALMLQDGNKGFVYVDGVLVGNPAMLPTPEERWTEFSHFYFGGDEGDSGSDATLTDVFLYNRPLSVGELKMIKEVED
modifications: synthetic recombinant protein based on TSA1 from T. cruzi
notes: Recombinant T. cruzi TSA-1 fragment, four cysteines mutated to serine (C248S, C267S, C360S, C447S), plus 43 C-terminal amino acids

Key:
[1] = Aggregation / stability of on-column refolded protein on storage, stirring and freeze-thaw (visual analysis, SDS-PAGE, Western blot); format: physicochemical; details: for aggregation of on-column refolded protein on storage: stored at 4° C. one month, SDS-PAGE (TSA-1-C4: in PBS, also visual analysis, Western blot)
Protocol: FIG. 4A-C. On-column refolding of TSA-1-NT. A, chromatographic profile of TSA-1-NT refolded by Size Exclusion Chromatography; B, samples were collected and analyzed by SDS-PAGE under non-reducing condition aggregates (a), and refolded protein (b and c); C, refolded TSA1-NT (b) after one month at 4° C. under reducing (lanes 1,3) and non-reducing conditions (lane 2).
FIGS. 10A, B and C. SDS-PAGE analysis of refolded TSA-1 C4 by Size-Exclusion Chromatography. A, the collected fractions of the main peak of seven consecutive refolding batches of denatured TSA-1 C4 (in 1.6×100 XK column packed with 185 ml of Sepharose 6FF) were analyzed by 10% SDS-PAGE under non-reducing conditions; batch1 (Lanes 2 and 3), batch 2 (Lanes 4 and 5), batch 3 (Lanes 6 and 7), batch 4 (Lanes 8 and 9), batch 5 (Lanes 10 and 11), batch 6 (Lanes 12 and 13), batch 7 (Lanes 14 and 15). B, Refolded TSA-1-C4 was stored at 4° C. in refolding buffer (lanes 1,4), Tris-HCl (lanes 2 and 5) and PBS (lanes 3 and 6) buffers. Samples were analyzed by SDS-PAGE under non-reduced conditions before (lanes 1, 2 and 3) and after one month (lanes 4, 5 and 6) of storage at 4° C. C, the stability of refolded TSA-1-C4 was tested by orbital stirring at 25 rpm and 20° C. for 24 (lane 2), 48 (lane 3) and 120 h (lane 4), and by cycles of freezing (−80° C.)-thawing at 24 h (lane 5), 48 (lane6) and (lane 7). Molecular Weight marker (lane 1).
(§1) In order to develop as a recombinant protein vaccine that can be used in humans in endemic areas, the coding DNA for TSA-1-NT was identified and codon optimized for expression in E. coli. The synthesized DNA was cloned into pET41a, a bacterial expression vector with an IPTG inducible T7 promoter. The recombinant TSA-1-NT/pET41a plasmid DNA was transformed into E. coli BL21(DE3). […] The on-column refolded TSA-1-NT was soluble but aggregated when stored at 4° C. one month (FIG. 4C). Aggregation causes problems with reproducibility and consistency, and would prevent the protein from being developed into a vaccine formulation. We hypothesized that the reason for the aggregation was the interaction of four cysteine residues in the sequence of the molecule (C248, C267, C360, C447) that could lead to intermolecular disulfide bridges.
However, and more importantly, and unlike TSA-1 NT, after purification on a nickel column or ion-exchange chromatography (FIGS. 8A and B) and refolding on a size-exclusion column (FIGS. 9A and B). The refolded TSA-1-C4 was concentrated by ultrafiltration, analyzed by SDS-PAGE (FIG. 10A) and it was stable.

[2] = Solubility of recombinant protein expressed in E. coli BL21(DE3) (SDS-PAGE of soluble fraction and inclusion bodies; 8M urea); format: physicochemical; details: for solubility of protein as expressed in E. coli: E. coli BL21(DE3), induced with 0.5 mM IPTG
Protocol: FIGS. 3A and B. SDS-PAGE of expressed wild-type TSA-1-NT in E. coli BL21(DE3) induced with 0.5 mM IPTG from 0-16 hours.
FIGS. 6A and B. SDS-PAGE of expressed TSA-1-C4 in E. coli BL21(DE3) induced with 0.5 mM IPTG over 16 hours.
as §1
The coding DNA for TSA-1-C4 (SEQ ID NO: 5) was codon optimized for expression in E. coli, synthesized by GenScript, and cloned into pET41a with an octahistidine-tag (SEQ ID NO: 11, HHHHHHHH, shaded in FIG. 5A) or without an octahistidine-tag (SEQ ID NO: 3, FIG. 2 and FIG. 5B) expressed at its C-terminus. The recombinant plasmid DNAs were transformed into E. coli BL21(DE3) and selected on LB agar plates containing 30 μg/mL of kanamycin. The correct sequences and reading frames were confirmed by double-strand DNA sequencing with vector flanking primers.

T. cruzi [3] = details: mice; cited from earlier work
[4] = cited from earlier work
T. cruzi [5] = details: formulated with E6020-SE; versus Tc24+E6020-SE; cited from earlier work
H1 Trypanosoma cruzi = test: Therapeutic vaccine efficacy: parasitemia in H1 Trypanosoma cruzi-infected mice; format: in vivo; details: 20 μg antigen IM, acute infection, compared to untreated controls
Protocol: FIGS. 11A and B. Therapeutic effect of TSA-1-C4 alone or with Tc24-C4 and in a combination with or without benznidazole (BZN) treatment. H1 Trypanosoma cruzi-infected mice were treated with Tc24-C4 and TSA-1-C4, […] and given orally 25 mg/kg BZN per day for 20 days. A, Kinetic parasitemia was recorded each 3 days during the acute infection. Standard bars represent the error of the mean. B, Area under the curve (AUC) was graphed using the simple method of Gagnon. Histograms represent the mean and standard bars the error of the mean.
Briefly, H1 Trypanosoma cruzi-infected mice were treated with Tc24-C4 and TSA-1-C4, 20 μg each and given orally 25 mg/kg BZN per day for 20 days. Kinetic parasitemia was recorded each 3 days during the acute infection (FIG. 11A), and the area under the curve (AUC) was graphed (FIG. 11B).

Molecule | aggregation of on-column refolded protein on storage [1] | aggregation when compounded into vaccine compositions ([1]; vaccine compositions) | solubility in 8M urea [2] | solubility of protein as expressed in E. coli [2] | protective immunity (T. cruzi [3]) | solubility of protein as expressed in E. coli ([4]; E. coli (BL21)) | aggregation on storage ([4]; purified protein stored at 4° C. for 9 days, Western blot, light-scattering, HPLC-RP) | protection (mouse survival rate and parasitemia levels in blood) (T. cruzi [5]) | aggregation under stirring ([1]; after 120 h under orbital stirring, 25 rpm, 20° C.) | aggregation after cycles of freezing-thawing ([1]; freezing (−80° C.)-thawing at 24, 48 and 120 h) | levels of parasites in the blood (parasitemia, AUC) (H1 Trypanosoma cruzi)
TSA-1-NT: N-terminal fragment of TSA-1 (aa 30-617), wild-type cysteines [reference compound] | aggregated | aggregates | soluble in 8M urea | expressed as insoluble protein in inclusion body | induces protective immunity | – | – | – | – | – | –
B1 | – | – | – | – | – | soluble protein | did not form any aggregation | similarly protected | – | – | –
B2 | No aggregation observed | – | soluble in 8M urea | expressed as insoluble protein in inclusion bodies | – | – | – | – | No aggregation observed | No aggregation observed | significantly lower levels of parasites in the blood
